Measured values reported in the supplement of paper PMC9112550, “Optimization of the antimicrobial peptide Bac7 by deep mutational scanning” (BMC Biology, 2022).

System: Escherichia coli TOP10
Assay: shrunken log2 fold change of peptide-encoding DNA abundance (4.5 h post-induction vs induction); higher = less antimicrobial activity (less host growth inhibition)
Conditions: time post-induction: 4.5 h; library: site-saturation at positions 5, 18, 19, 20
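Also: peptides expressed intracellularly from a pBAD plasmid library in pooled LB shake-flask culture, induced with 0.3% L-arabinose, DNA abundance read by NGS, three biological replicates, DESeq2 with apeglm shrinkage.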

Sequence | shrunken log2 fold change
RRIRDRPPRLPRPRPRPENHPRP | -0.0926
RRIRDRPPRLPRPRPRPENTPRP | 0.17
RRIRDRPPRLPRPRPRPENYPRP | 0.0528
RRIRDRPPRLPRPRPRPEPDPRP | 1.33
RRIRDRPPRLPRPRPRPEPFPRP | -0.137
RRIRDRPPRLPRPRPRPEQHPRP | 0.465
RRIRDRPPRLPRPRPRPEQKPRP | 0.0533
RRIRDRPPRLPRPRPRPERAPRP | 0.0972
RRIRDRPPRLPRPRPRPERGPRP | 0.689
RRIRDRPPRLPRPRPRPERRPRP | 0.0137
RRIRDRPPRLPRPRPRPESQPRP | -0.0206
RRIRDRPPRLPRPRPRPETQPRP | 0.476
RRIRDRPPRLPRPRPRPETWPRP | 0.0111
RRIRDRPPRLPRPRPRPEVLPRP | 1.14
RRIRDRPPRLPRPRPRPEWCPRP | 0.272
RRIRDRPPRLPRPRPRPEWHPRP | 0.623
RRIRDRPPRLPRPRPRPEWPPRP | 0.209
RRIRDRPPRLPRPRPRPFCFPRP | 0.265
RRIRDRPPRLPRPRPRPFCPPRP | -0.277
RRIRDRPPRLPRPRPRPFFRPRP | -0.0152
RRIRDRPPRLPRPRPRPFGYPRP | -0.342
RRIRDRPPRLPRPRPRPFHEPRP | -0.048
RRIRDRPPRLPRPRPRPFIDPRP | 0.168
RRIRDRPPRLPRPRPRPFLHPRP | 0.204
RRIRDRPPRLPRPRPRPFLNPRP | -0.243
RRIRDRPPRLPRPRPRPFNLPRP | -0.176
RRIRDRPPRLPRPRPRPFRNPRP | -0.0013

Sequence | shrunken log2 fold change
RRIRDRPPRLPRPRPRPFTDPRP | 0.00624
RRIRDRPPRLPRPRPRPFVEPRP | -0.0362
RRIRDRPPRLPRPRPRPFVIPRP | 0.129
RRIRDRPPRLPRPRPRPFWEPRP | 0.272
RRIRDRPPRLPRPRPRPFYAPRP | -0.439
RRIRDRPPRLPRPRPRPGAVPRP | 0.614
RRIRDRPPRLPRPRPRPGCCPRP | 0.617
RRIRDRPPRLPRPRPRPGFKPRP | 0.0624
RRIRDRPPRLPRPRPRPGFNPRP | 0.125
RRIRDRPPRLPRPRPRPGFPPRP | 0.0346
RRIRDRPPRLPRPRPRPGGDPRP | 0.908
RRIRDRPPRLPRPRPRPGGFPRP | 0.134
RRIRDRPPRLPRPRPRPGGKPRP | -0.0179
RRIRDRPPRLPRPRPRPGGYPRP | 0.101
RRIRDRPPRLPRPRPRPGHLPRP | -0.000122
RRIRDRPPRLPRPRPRPGIFPRP | 0.0908
RRIRDRPPRLPRPRPRPGKPPRP | 0.0599
RRIRDRPPRLPRPRPRPGLAPRP | 0.565
RRIRDRPPRLPRPRPRPGLLPRP | 0.16
RRIRDRPPRLPRPRPRPGLNPRP | 0.184
RRIRDRPPRLPRPRPRPGLWPRP | 1.37
RRIRDRPPRLPRPRPRPGMQPRP | 0.165
RRIRDRPPRLPRPRPRPGMYPRP | -0.00172
RRIRDRPPRLPRPRPRPGNIPRP | -0.0319
RRIRDRPPRLPRPRPRPGNVPRP | -0.0882
RRIRDRPPRLPRPRPRPGPCPRP | 0.244
RRIRDRPPRLPRPRPRPGPDPRP | 0.217
